± gives the uncertainty stated by the source.
Experiment: amyloid nucleation score (Sup35N fusion, yeast selection) (log enrichment); library NNK3; higher = more nucleation; inactive = no reads after selection
Procedure, shortened: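 Libraries of peptides of 20 random codons fused to Sup35N were expressed in psi-negative yeast and induced 24 hours with 100 μM copper sulfate. Selection was 7 days at 30°C on medium lacking adenine and uracil, and plasmid inserts were Illumina-sequenced before and after selection. Nucleation score is the DiMSum log enrichment of output over input reads, centred on the mode score of non-aggregating sequences, and sequences with under 100 input reads were left out.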

## NIFSQWYIISCLFRGKLCEH
  amyloid nucleation score: 1 ± 0.13

## MKVLYDKVKSVTASIELWFW
  amyloid nucleation score: inactive

## CNYLTMSGF
  amyloid nucleation score: inactive

## DVSWRTPYTIKNYGSFFLIK
  amyloid nucleation score: inactive

## EFMIIMYSHSLCVLQAVQLV
  amyloid nucleation score: inactive

## NEICEHTSVVLLR
  amyloid nucleation score: inactive

## FRFSR
  amyloid nucleation score: inactive

## RYLDQLI
  amyloid nucleation score: inactive

## RAGTKLPLYL
  amyloid nucleation score: inactive

## LGSLPGGETLHCLNRFQRLS
  amyloid nucleation score: inactive

## TFRVNMCNPLMLGYVLFWLD
  amyloid nucleation score: inactive

## LHEEGCATVLKVGCALTSEC
  amyloid nucleation score: inactive

## GRIGTVGWGISLHYVYTDRA
  amyloid nucleation score: 0.547 ± 0.2

## SWQNWGRGGCSGLFVSRWVT
  amyloid nucleation score: inactive

## IGIEFLNLKHLPSYLLSVRF
  amyloid nucleation score: inactive

## KLLLMGCRDVYFSYRIFM
  amyloid nucleation score: 3 ± 0.054

## MYTMSHSGLVLALFDAGSWR
  amyloid nucleation score: inactive

## AAVWRVVKRNLCHEIGERTA
  amyloid nucleation score: inactive

## CMVCYLLPGSVSTCSCVRGI
  amyloid nucleation score: 2.75 ± 0.064

## KISSQIYMCRKTNSSDRTMM
  amyloid nucleation score: inactive

## TLYVIGLPFDLALMGI
  amyloid nucleation score: inactive

## ALVAKVVIGSRW
  amyloid nucleation score: 0.569 ± 0.3

## CSVVWIMV
  amyloid nucleation score: -0.852 ± 0.8

## DFFAHVNAIG
  amyloid nucleation score: inactive

## ITVFNLILM
  amyloid nucleation score: 2.61 ± 0.058

## CNFVNSKRNFLYTLG
  amyloid nucleation score: inactive

## LSVYGLQGHSNHNRMDGISW
  amyloid nucleation score: 0.718 ± 0.2

## EPRGCYRQMLHKLIMS
  amyloid nucleation score: inactive

## MVRNRNYSLIYGWVPIQDEE
  amyloid nucleation score: 1.82 ± 0.099

## LQSGDRIVTDSYVRAYTMHV
  amyloid nucleation score: inactive

## VFVTM
  amyloid nucleation score: inactive

## TCVMPGVSQLRFGYWVWICR
  amyloid nucleation score: inactive

## VVVKKSVVDAWSAYYFRLFV
  amyloid nucleation score: inactive

## TWGPHLIPLFNNL
  amyloid nucleation score: inactive

## TCLNGLVESRLAGFYHLRGP
  amyloid nucleation score: inactive

## MSKHRMFLSGRLFRANEVRP
  amyloid nucleation score: inactive

## WIVKL
  amyloid nucleation score: inactive

## MPSLRRS
  amyloid nucleation score: inactive

## YINHSSSTA
  amyloid nucleation score: inactive

## SPFVCHEPLLRVVWSSTCSF
  amyloid nucleation score: inactive

## SCIRVRRNATVAVVLDDMLK
  amyloid nucleation score: inactive

## CCFVRWGFGC
  amyloid nucleation score: 1.38 ± 0.091

## HVYLAQGL
  amyloid nucleation score: inactive

## IKWFLSNGIYYGILNFIDTR
  amyloid nucleation score: inactive

## RCFGKIC
  amyloid nucleation score: inactive

## VSSATTTMARRIHCFRVSRV
  amyloid nucleation score: inactive

## LWYWVELLCCTGGSRA
  amyloid nucleation score: 2.02 ± 0.086

## VLLQKGTETECGLAIVQLKW
  amyloid nucleation score: inactive

## VYAVIDWRDLCF
  amyloid nucleation score: inactive

## VNFRIKAIVVSLRGYDWLSG
  amyloid nucleation score: 0.287 ± 0.67

## WNPCVHTLGI
  amyloid nucleation score: inactive

## KFFYCERVLSGNRVKRHERI
  amyloid nucleation score: 0.676 ± 0.21

## GYISMSNKHMGVYIHLA
  amyloid nucleation score: inactive

## NSKYLLD
  amyloid nucleation score: inactive

## ASCSGIC
  amyloid nucleation score: -0.956 ± 2.4

## ECELPNAPTCEICKIDSRLG
  amyloid nucleation score: inactive

## CDRLIVHLFSHLDSGSSVVL
  amyloid nucleation score: inactive

## TYFILKETATDLN
  amyloid nucleation score: inactive

## KFWLKVHFYEHKWSWVMFEC
  amyloid nucleation score: inactive

## IARINGMLASSGVASTM
  amyloid nucleation score: inactive

## GWKFMREYSKRIGSSSPVVY
  amyloid nucleation score: inactive

## CVGMEVCGWEGS
  amyloid nucleation score: inactive

## VFCPTWFTMGGVCIAVAHLV
  amyloid nucleation score: 0.486 ± 0.33

## RRGYLVYFGSTFYYSSNSFW
  amyloid nucleation score: 0.468 ± 0.19

## HWLRCHEVEKVLVL
  amyloid nucleation score: inactive

## GSMMLWCFIDSSWDLSLRK
  amyloid nucleation score: 0.884 ± 0.19

## RFGFSVKFMYDDGMSAVCTS
  amyloid nucleation score: inactive

## WWKSLLTRWRCLPPRK
  amyloid nucleation score: -0.307 ± 0.62

## KDLNENGRLFIIDPIIFSMF
  amyloid nucleation score: inactive

## TWWSEGIYELKYGLFWLGVV
  amyloid nucleation score: inactive

## IGLSLE
  amyloid nucleation score: inactive

## GWKANWELCRVYVQWSGLNV
  amyloid nucleation score: 0.422 ± 0.38

## KVCGCSILLLKLRGVNRVVS
  amyloid nucleation score: inactive

## SIMFVCQFGGGSRNSYGCLA
  amyloid nucleation score: 2.24 ± 0.078

## FLGTVLLGWFIAMMSRCLGR
  amyloid nucleation score: 0.048 ± 0.45

## VFYSLMILSLLNSRRDGLHQ
  amyloid nucleation score: 0.429 ± 0.48

## NYIDGFFFVHWAGTLMHKDC
  amyloid nucleation score: inactive

## RFFAIL
  amyloid nucleation score: inactive

## IGIDMMMESKLYSCCNLDMY
  amyloid nucleation score: 1.38 ± 0.078

## VRIKFCAWKLGYGSTGNVHI
  amyloid nucleation score: 0.657 ± 0.2

## ESLNGLNRSHA
  amyloid nucleation score: inactive

## CFLMN
  amyloid nucleation score: inactive

## RNVCMSEVGSVDKSSLLHGN
  amyloid nucleation score: inactive

## RLYKKGRGPFHLTPAPRD
  amyloid nucleation score: inactive

## WLARTRRVVLRNLVLAVTCI
  amyloid nucleation score: inactive

## PEMFGRSWARDTRKVTVLAS
  amyloid nucleation score: inactive

## ACGRVNVCYLTPMVRHSGRS
  amyloid nucleation score: inactive

## NSIQEDV
  amyloid nucleation score: inactive

## CRVPSLVIC
  amyloid nucleation score: inactive

## VHHEILHHGLFGEMSCVVEC
  amyloid nucleation score: inactive

## LGEWYWYYFFRARR
  amyloid nucleation score: inactive

## QCDVCVCCVARAEAVRRILG
  amyloid nucleation score: 2.33 ± 0.075

## WSFQLSVLFVCNLITYNCV
  amyloid nucleation score: 1.68 ± 0.069

## AIFFSFYRSFY
  amyloid nucleation score: 1.86 ± 0.053

## LFELDKLNRVHLNGVMGVII
  amyloid nucleation score: inactive

## NVVIFML
  amyloid nucleation score: 2.47 ± 0.076

## LFTDPCCTIGMSFRV
  amyloid nucleation score: 1.08 ± 0.075

## CLRECWCSGNTTHGSHWSTC
  amyloid nucleation score: inactive

## HRELRVTVHQKFNLRMRVSD
  amyloid nucleation score: inactive

## KLYESYASIRNNGCLRCSNS
  amyloid nucleation score: inactive

## IADSKHTNCFRYMSHVW
  amyloid nucleation score: inactive

## KDNKGMGRMFSNILFFTISL
  amyloid nucleation score: 0.663 ± 0.13

## VVLNWNTNGY
  amyloid nucleation score: 0.669 ± 0.15

## MIGNITMGLMSLDSGKRSVN
  amyloid nucleation score: inactive

## VRSIRWKVT
  amyloid nucleation score: inactive

## SKGGADNNWLVIDCPLNRRM
  amyloid nucleation score: inactive

## TLSMSWDLTKHFAVVTESRG
  amyloid nucleation score: inactive

## MVSGH
  amyloid nucleation score: inactive

## GNTVEGKLE
  amyloid nucleation score: inactive

## CASSNRRESSYVLYSQWDIG
  amyloid nucleation score: inactive

## TCLVSNYVAYIWGNEFFAAS
  amyloid nucleation score: 2.19 ± 0.053

## HGVWSCRWWLNNRMF
  amyloid nucleation score: inactive

## MMFVGYLSCFSS
  amyloid nucleation score: 2.38 ± 0.059

## VCRWSGGGEIGIICGLVSLV
  amyloid nucleation score: inactive

## MTGCHCSSVAR
  amyloid nucleation score: -0.299 ± 0.68

## CLSSSETPFSGDRTMA
  amyloid nucleation score: -0.046 ± 0.52

## ISMLTVVSN
  amyloid nucleation score: inactive

## YQFFDASLIAR
  amyloid nucleation score: inactive

## KSCWLSYGFQLFIGVMNMH
  amyloid nucleation score: 1.29 ± 0.079

## YWAQLPNPPYLLCPH
  amyloid nucleation score: inactive

## TFDFPHIRRLEFKFAI
  amyloid nucleation score: inactive

## NGINNCSEIKHVCTGLANPV
  amyloid nucleation score: inactive

## NNMVHVVDKFFSLILVMVFS
  amyloid nucleation score: inactive

## WLDWSAGHCGYVKLLW
  amyloid nucleation score: inactive

## QGSYTAESTVHHWGFKMNNY
  amyloid nucleation score: 0.754 ± 0.22

## DLVPVIHGIYWAG
  amyloid nucleation score: inactive

## RICSQMLFFRYESRHFWSFV
  amyloid nucleation score: inactive

## TCCYRYYLLILAVSGVFIDT
  amyloid nucleation score: inactive

## FRCPMFFNCSSVLTSHVSLA
  amyloid nucleation score: 1.34 ± 0.16

## INFLCTDAFTMKFTGAYGKH
  amyloid nucleation score: 2.4 ± 0.054

## GIGIFSCLKSSVLCLIYLSR
  amyloid nucleation score: -0.113 ± 0.31

## WLVFITPYLSLSCLSLINKI
  amyloid nucleation score: inactive

## ADNIGRFVYCYCSVLQTTIS
  amyloid nucleation score: 0.401 ± 0.21

## NYVICVYFMAGVSACMTLLV
  amyloid nucleation score: inactive

## ILAHPCSYRFGSWGRLINRN
  amyloid nucleation score: inactive

## DANGCA
  amyloid nucleation score: inactive

## SKLGYRRVSKCIGTDFN
  amyloid nucleation score: inactive

## SPDDVDYFFLVRNDRMCAYV
  amyloid nucleation score: inactive

## RWSVLAVSCM
  amyloid nucleation score: inactive

## SKFSCIRSYYG
  amyloid nucleation score: inactive

## LCCGKCRPGPKFCTKISHTN
  amyloid nucleation score: inactive

## NCGNAPFGFVRP
  amyloid nucleation score: inactive

## IMPYC
  amyloid nucleation score: inactive

## SSQVET
  amyloid nucleation score: inactive

## MSSISIKGKIYDWMFRFCCR
  amyloid nucleation score: inactive

## AIISWQTLMWLYL
  amyloid nucleation score: inactive

## LRTWLL
  amyloid nucleation score: inactive

## IAVCTRAMASNRLGFQYRNG
  amyloid nucleation score: inactive

## MVLLI
  amyloid nucleation score: -0.031 ± 1

## VSVIWSMMCIRIITISCGRV
  amyloid nucleation score: inactive

## KYGVLLRIHR
  amyloid nucleation score: 0.499 ± 0.72

## VYFHSGSARFNTGTQL
  amyloid nucleation score: inactive

## NSGHLVLGCMYIFSNGFVDR
  amyloid nucleation score: 1.22 ± 0.14

## HSFFVVQAS
  amyloid nucleation score: inactive

## VFAFGNIGLVRWFVI
  amyloid nucleation score: inactive

## MSFSPQKVVAHFCYWSCMRS
  amyloid nucleation score: inactive

## SEICF
  amyloid nucleation score: inactive

## VSASILS
  amyloid nucleation score: inactive

## VIHMH
  amyloid nucleation score: inactive

## GHIYCYSVKE
  amyloid nucleation score: inactive

## VMSKIISTQLVDMR
  amyloid nucleation score: inactive

## RYGDWLHHS
  amyloid nucleation score: inactive

## KDTRIQLVNNFICGDSLE
  amyloid nucleation score: inactive

— the supplement of paper PMC12042874
